In assay [1] the target is T1, soluble CGRP receptor (ECDs of human CRLR and human RAMP1) (human, UniProt Q16602 23-133; O60894 26-117).
T1 construct: complex treated with thrombin before crystallization; also called soluble human CGRP receptor; CRLR ECD/RAMP1 ECD heterodimer
Nature of the assay: SPR (Biacore T200), antibody captured, soluble CGRP receptor as analyte.

Assay [2] has as its target T2, soluble CGRP receptor (extracellular domains of human CRLR and human RAMP1) (human, UniProt Q16602 23-133; O60894 26-117).
T2 construct: the tag and the thrombin site are not described; also called soluble human CGRP receptor; CGRP receptor ECD
The assay can be described thus: SPR (Biacore T200), antibody captured by goat anti-human Fc, soluble CGRP receptor as analyte.

In assay [3] the target is human CGRP receptor (human CRLR / human RAMP1 heterodimer) on SK-N-MC (HTB-10) cells (human, UniProt Q16602 23-461; O60894 27-148). Nature of the assay: cell-based or functional assay.
Chain of human CGRP receptor (human CRLR / human RAMP1 heterodimer) on SK-N-MC (HTB-10) cells (Q16602 23-461 limits assumed, chain 1 of 2): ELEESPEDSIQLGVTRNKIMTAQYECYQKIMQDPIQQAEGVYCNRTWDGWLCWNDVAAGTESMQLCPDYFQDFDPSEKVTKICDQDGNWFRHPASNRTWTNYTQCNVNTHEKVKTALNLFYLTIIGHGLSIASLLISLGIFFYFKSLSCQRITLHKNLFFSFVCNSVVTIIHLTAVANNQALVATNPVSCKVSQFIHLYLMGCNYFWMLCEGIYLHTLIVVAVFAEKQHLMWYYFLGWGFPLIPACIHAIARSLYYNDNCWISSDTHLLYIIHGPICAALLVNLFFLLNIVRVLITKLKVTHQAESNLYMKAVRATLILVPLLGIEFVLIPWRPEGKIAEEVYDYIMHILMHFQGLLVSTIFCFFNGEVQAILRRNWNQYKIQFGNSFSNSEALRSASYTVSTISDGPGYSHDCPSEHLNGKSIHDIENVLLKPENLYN
Chain of human CGRP receptor (human CRLR / human RAMP1 heterodimer) on SK-N-MC (HTB-10) cells (O60894 27-148 limits assumed, chain 2 of 2): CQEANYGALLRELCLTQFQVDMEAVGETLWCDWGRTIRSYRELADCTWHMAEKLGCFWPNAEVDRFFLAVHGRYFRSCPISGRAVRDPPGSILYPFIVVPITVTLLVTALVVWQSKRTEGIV
For assay [4], the target named is T3, human PAC1 receptor on SH-SY5Y (CRL-2266) cells (human, UniProt P41586 24-468).
T3 sequence: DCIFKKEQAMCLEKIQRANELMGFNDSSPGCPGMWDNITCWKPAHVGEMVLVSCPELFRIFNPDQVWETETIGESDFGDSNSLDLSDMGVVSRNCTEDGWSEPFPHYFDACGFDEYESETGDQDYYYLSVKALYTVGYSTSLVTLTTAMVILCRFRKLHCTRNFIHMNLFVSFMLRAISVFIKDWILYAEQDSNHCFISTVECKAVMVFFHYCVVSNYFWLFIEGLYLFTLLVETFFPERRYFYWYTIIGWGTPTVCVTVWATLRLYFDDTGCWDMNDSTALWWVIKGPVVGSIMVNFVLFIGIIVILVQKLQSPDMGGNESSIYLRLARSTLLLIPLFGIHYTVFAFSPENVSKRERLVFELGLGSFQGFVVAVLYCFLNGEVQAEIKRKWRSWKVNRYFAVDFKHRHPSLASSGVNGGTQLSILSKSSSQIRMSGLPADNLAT
The assay can be described thus: cell-based or functional assay.

T1 sequence (Q16602 23-133, chain 1 of 2): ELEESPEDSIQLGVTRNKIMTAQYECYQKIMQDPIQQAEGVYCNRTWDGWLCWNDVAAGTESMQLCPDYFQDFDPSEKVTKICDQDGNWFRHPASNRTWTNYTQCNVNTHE
T1 sequence (O60894 26-117, chain 2 of 2): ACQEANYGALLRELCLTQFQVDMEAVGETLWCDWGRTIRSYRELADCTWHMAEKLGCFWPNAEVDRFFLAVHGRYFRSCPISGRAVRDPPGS
T2 sequence (Q16602 23-133, chain 1 of 2): as the sequence (Q16602 23-133, chain 1 of 2) above
T2 sequence (O60894 26-117, chain 2 of 2): as the sequence (O60894 26-117, chain 2 of 2) above

B1: 4E4 single-point alanine variant antibody H_D54A (antibody, V domains shown)
VH: QVQLVESGGGVVQPGRSLRLSCAASGFTFSSFGMHWVRQAPGKGLEWVAVISFAGSIKYSVDSVKGRFTISRDNSKNTLFLQMNSLRAEDTAVYYCARDRLNYYDSSGYYHYKYYGMAVWGQGTTVTVSS
VL: QSVLTQPPSVSAAPGQKVTISCSGSSSNIGNNYVSWYQQLPGTAPKLLIYDNNKRPSGIPDRFSGSKSGTSTTLGITGLQTGDEADYYCGTWDSRLSAVVFGGGTKLTVLG
notes: Recombinantly expressed as monoclonal antibody; also called CDRH2 D54A antibody variant
Regarding B1, the “fold faster dissociation rate against wild-type 4E4” value in assay [1] is roughly 5 fold.

B2: 4E4 single-point alanine variant antibody H_Y103A (antibody, V domains shown)
VH: QVQLVESGGGVVQPGRSLRLSCAASGFTFSSFGMHWVRQAPGKGLEWVAVISFDGSIKYSVDSVKGRFTISRDNSKNTLFLQMNSLRAEDTAVYYCARDRLNAYDSSGYYHYKYYGMAVWGQGTTVTVSS
VL: QSVLTQPPSVSAAPGQKVTISCSGSSSNIGNNYVSWYQQLPGTAPKLLIYDNNKRPSGIPDRFSGSKSGTSTTLGITGLQTGDEADYYCGTWDSRLSAVVFGGGTKLTVLG
notes: Recombinantly expressed as monoclonal antibody
In the case of B2, the binding result in assay [1] was “no binding (tested: 1000 nM (highest analyte concentration))”.

B3: 4E4 single-point alanine variant antibody H_Y104A (antibody, V domains shown)
VH: QVQLVESGGGVVQPGRSLRLSCAASGFTFSSFGMHWVRQAPGKGLEWVAVISFDGSIKYSVDSVKGRFTISRDNSKNTLFLQMNSLRAEDTAVYYCARDRLNYADSSGYYHYKYYGMAVWGQGTTVTVSS
VL: QSVLTQPPSVSAAPGQKVTISCSGSSSNIGNNYVSWYQQLPGTAPKLLIYDNNKRPSGIPDRFSGSKSGTSTTLGITGLQTGDEADYYCGTWDSRLSAVVFGGGTKLTVLG
notes: as for B2
Turning to B3, the binding result in assay [1] is recorded as “no binding (tested: 1000 nM (highest analyte concentration))”.

B4: 4E4 single-point alanine variant antibody H_Y109A (antibody, V domains shown)
VH: QVQLVESGGGVVQPGRSLRLSCAASGFTFSSFGMHWVRQAPGKGLEWVAVISFDGSIKYSVDSVKGRFTISRDNSKNTLFLQMNSLRAEDTAVYYCARDRLNYYDSSGAYHYKYYGMAVWGQGTTVTVSS
VL: QSVLTQPPSVSAAPGQKVTISCSGSSSNIGNNYVSWYQQLPGTAPKLLIYDNNKRPSGIPDRFSGSKSGTSTTLGITGLQTGDEADYYCGTWDSRLSAVVFGGGTKLTVLG
notes: as for B2
Take B4: the binding result in assay [1] is recorded as “no binding (tested: 1000 nM (highest analyte concentration))”.

B5: 4E4 heavy chain Y110A single-point alanine variant antibody (antibody, V domains shown)
VH: QVQLVESGGGVVQPGRSLRLSCAASGFTFSSFGMHWVRQAPGKGLEWVAVISFDGSIKYSVDSVKGRFTISRDNSKNTLFLQMNSLRAEDTAVYYCARDRLNYYDSSGYAHYKYYGMAVWGQGTTVTVSS
VL: QSVLTQPPSVSAAPGQKVTISCSGSSSNIGNNYVSWYQQLPGTAPKLLIYDNNKRPSGIPDRFSGSKSGTSTTLGITGLQTGDEADYYCGTWDSRLSAVVFGGGTKLTVLG
notes: Recombinantly expressed as a monoclonal antibody
As for B5, the binding result in assay [2] is “no binding (tested: soluble CGRP receptor up to 1000 nM)”.

B6: 4E4 heavy chain Y109A single-point alanine variant antibody (antibody, V domains shown)
VH: QVQLVESGGGVVQPGRSLRLSCAASGFTFSSFGMHWVRQAPGKGLEWVAVISFDGSIKYSVDSVKGRFTISRDNSKNTLFLQMNSLRAEDTAVYYCARDRLNYYDSSGAYHYKYYGMAVWGQGTTVTVSS
VL: QSVLTQPPSVSAAPGQKVTISCSGSSSNIGNNYVSWYQQLPGTAPKLLIYDNNKRPSGIPDRFSGSKSGTSTTLGITGLQTGDEADYYCGTWDSRLSAVVFGGGTKLTVLG
notes: as for B5
For B6, the binding result in assay [2] was “no binding (tested: soluble CGRP receptor up to 1000 nM)”.

B7: 4E4 single-point alanine variant antibody H_Y110A (antibody, V domains shown)
VH: QVQLVESGGGVVQPGRSLRLSCAASGFTFSSFGMHWVRQAPGKGLEWVAVISFDGSIKYSVDSVKGRFTISRDNSKNTLFLQMNSLRAEDTAVYYCARDRLNYYDSSGYAHYKYYGMAVWGQGTTVTVSS
VL: QSVLTQPPSVSAAPGQKVTISCSGSSSNIGNNYVSWYQQLPGTAPKLLIYDNNKRPSGIPDRFSGSKSGTSTTLGITGLQTGDEADYYCGTWDSRLSAVVFGGGTKLTVLG
notes: as for B2
On to B7, for which the binding result in assay [1] is “no binding (tested: 1000 nM (highest analyte concentration))”.

B8: 4E4 heavy chain Y103A single-point alanine variant antibody (antibody, V domains shown)
VH: QVQLVESGGGVVQPGRSLRLSCAASGFTFSSFGMHWVRQAPGKGLEWVAVISFDGSIKYSVDSVKGRFTISRDNSKNTLFLQMNSLRAEDTAVYYCARDRLNAYDSSGYYHYKYYGMAVWGQGTTVTVSS
VL: QSVLTQPPSVSAAPGQKVTISCSGSSSNIGNNYVSWYQQLPGTAPKLLIYDNNKRPSGIPDRFSGSKSGTSTTLGITGLQTGDEADYYCGTWDSRLSAVVFGGGTKLTVLG
notes: as for B5
For B8, the binding result in assay [2] was “no binding (tested: soluble CGRP receptor up to 1000 nM)”.

B9: 4E4 heavy chain Y104A single-point alanine variant antibody (antibody, V domains shown)
VH: QVQLVESGGGVVQPGRSLRLSCAASGFTFSSFGMHWVRQAPGKGLEWVAVISFDGSIKYSVDSVKGRFTISRDNSKNTLFLQMNSLRAEDTAVYYCARDRLNYADSSGYYHYKYYGMAVWGQGTTVTVSS
VL: QSVLTQPPSVSAAPGQKVTISCSGSSSNIGNNYVSWYQQLPGTAPKLLIYDNNKRPSGIPDRFSGSKSGTSTTLGITGLQTGDEADYYCGTWDSRLSAVVFGGGTKLTVLG
notes: as for B5
Take B9: the binding result in assay [2] was “no binding (tested: soluble CGRP receptor up to 1000 nM)”.

B10: iPS:571824 (5609) anti-CGRP receptor/anti-PAC1 receptor bispecific hetero-immunoglobulin (bispecific antibody, human IgG1, kappa, lambda, N297G)
light 1: QSVLTQPPSVSAAPGQKVTISCSGSYSNIGRYSVSWYQQLPGTAPKLLIYDNNKRPSGIPDRFSGSKSGTSATLGITGLQTGDEADYYCGTWDSRLSAVVFGGGTKLTVLGQPKAAPSVTLFPPSSEELQANKATLVCLISDFYPGAVTVAWKADSSPVKAGVETTTPSKQSNNKYAAKSYLSLTPEQWKSHRSYSCQVTHEGSTVEKTVAPTECS
heavy 1: QVQLVESGGGVVQPGRSLRLSCAASGFTFSSFGMHWVRQAPGKGLEWVAVISFDGSIKYSVDSVKGRFTISRDNSKNTLFLQMNSLRAEDTAVYYCARDRLNYYESSGYYHYKYYGMAVWGQGTTVTVSSASTKGPSVFPLAPSSKSTSGGTAALGCLVKDYFPEPVTVSWNSGALTSGVHTFPAVLQSSGLYSLESVVTVPSSSLGTQTYICNVNHKPSNTKVDKKVEPKSCDKTHTCPPCPAPELLGGPSVFLFPPKPKDTLYITREPEVTCVVVDVSHEDPEVKFNWYVDGVEVHNAKTKPCEEQYGSTYRCVSVLTVLHQDWLNGKEYKCKVSNKALPAPIEKTISKAKGQPREPQVYTLPPSREKMTKNQVSLTCLVKGFYPSDIAVEWESNGQPENNYKTTPPVLKSDGSFFLYSKLTVDKSRWQQGNVFSCSVMHEALHNHYTQKSLSLSPGK
light 2: EIVLTQSPATLSLSPGERATLSCRASKSVGRSLHWYQQKPGQAPRLLIKYASQSLSGIPARFSGSGSGTDFTLTISSLEPEDFAVYYCHQSSRLPFTFGPGTKVDIKRTVAAPSVFIFPPSDEQLKSGTASVVCLLNNFYPREAKVQWKVDNALQSGNSQESVTEQDSKDSTYSLESTLTLSKADYEKHKVYACEVTHQGLSSPVTKSFNRGEC
heavy 2: not shown
In the case of B10, in assay [3], the “Fold-improvement over 4E4 Ab (human CGRP receptor IC50)” value is 1.5 fold and the “Human CGRP Receptor IC50 (nM), cell-based cAMP assay” value is 0.38 nM. For the same molecule, in assay [4], the “Fold-improvement over 29G4v22 Ab (human PAC1 receptor IC50)” value was found to be 6.6 fold and the “Human PAC1 Receptor IC50 (nM), cell-based cAMP assay” value worked out at 0.62 nM.

The record behind these values is patent US20220363770A1 (Amgen, published 2022).
